Common to all, as to assay: cryo-EM structure; genome-packed Douge virions purified from M. smegmatis lysate (PEG, CsCl gradient), vitrified at 4 °C; capsid, connector-vertex, tail tube, baseplate and central fiber reconstructed separately (2.18-4.26 Å) and joined in a composite map; the proteins stood in the assembled virion
The target of assay [1] is adaptor protein, gp9 of mycobacteriophage Douge (mycobacteriophage Douge).
Assay [2] deals with baseplate hub protein (BHP), gp18 of mycobacteriophage Douge (mycobacteriophage Douge).
For assay [3], the target named is capsid cement protein (CCP), gp113 of mycobacteriophage Douge (mycobacteriophage Douge).
The target of assay [4] is central fiber protein (CFP), gp20 of mycobacteriophage Douge (mycobacteriophage Douge).
Assay [5] deals with distal tail protein (DTP), gp17 of mycobacteriophage Douge (mycobacteriophage Douge).
In assay [6] the target is portal protein, gp5 of mycobacteriophage Douge (mycobacteriophage Douge).
Assay [7] has as its target stopper protein, gp10 of mycobacteriophage Douge (mycobacteriophage Douge).
Assay [8] deals with tail tube protein (TTP), gp13 of mycobacteriophage Douge (mycobacteriophage Douge).
The target in assay [9] is tape measure protein (TMP), gp16 of mycobacteriophage Douge (mycobacteriophage Douge).
The target of assay [10] is terminator protein, gp12 of mycobacteriophage Douge (mycobacteriophage Douge).

We go through ten substances from article PMC13033339.

For “adaptor protein, gp9 of mycobacteriophage Douge (natural protein)”, the stoichiometry N (usually the number of molecules, sites or subunits per partner or assembly) in assay [1] came out at 12.
“baseplate hub protein (BHP), gp18 of mycobacteriophage Douge (natural protein)” came in with a stoichiometry N in assay [2] of 3.
In assay [3], “capsid cement protein (CCP), gp113 of mycobacteriophage Douge (natural protein)” showed a stoichiometry N of 2.
In turn, “central fiber protein (CFP), gp20 of mycobacteriophage Douge (natural protein)” had a stoichiometry N in assay [4] of 3.
Take “distal tail protein (DTP), gp17 of mycobacteriophage Douge (natural protein)”: the stoichiometry N in assay [5] worked out at 6.
As for “portal protein, gp5 of mycobacteriophage Douge (natural protein)”, the stoichiometry N in assay [6] was found to be 12.
“stopper protein, gp10 of mycobacteriophage Douge (natural protein)” had a stoichiometry N in [7] of 6.
“tail tube protein (TTP), gp13 of mycobacteriophage Douge (natural protein)” registered a stoichiometry N in assay [8] of 6.
As to “tape measure protein (TMP), gp16 of mycobacteriophage Douge (natural protein)”, the stoichiometry N in assay [9] was 3.
“terminator protein, gp12 of mycobacteriophage Douge (natural protein)” showed a stoichiometry N in [10] of 6.
